Results on two substances are retold here after US20120220489A1.

Test [1] addresses Histone H3-BSA 2.7x peptide-protein conjugate (bovine). Put plainly: RPA, competition: +free H3 peptide 100 nM.
For test [2], the target named is ERK1 (p44) inactive (GST tagged), human, Invitrogen PV 3312 (human) (UniProt P27361). As to the kind of experiment: RPA, competition: +free H3 peptide 100 nM.
Test [3] concerns the target pErk1/2-BSA 2.7x peptide-protein conjugate (human; bovine). Put plainly: RPA, competition: +free H3 peptide 100 nM.
The target in test [4] is ERK1 (p44), human, Cell Signaling Technology 7416 (human) (UniProt P27361). As to the kind of experiment: RPA, competition: +free H3 peptide 100 nM.
Test [5] addresses ERK1 (p44) active (GST tagged), human, Invitrogen PV 3311 (human) (UniProt P27361). As to the kind of experiment: RPA, competition: +free H3 peptide 100 nM.
The target in test [6] is pRb recombinant protein, human, Active Motif 31 128 (human) (UniProt P06400). Put plainly: RPA, competition: +free H3 peptide 100 nM.
Test [7] concerns the target Erk1-BSA 2.7x peptide-protein conjugate (human; bovine). Put plainly: RPA, competition: +free H3 peptide 100 nM.
In test [8] the target is pErk1/2-BSA 2.7x peptide-protein conjugate (human; bovine). As to the kind of experiment: RPA, normal assay.
Sequence of pErk1/2-BSA 2.7x peptide-protein conjugate (human; bovine) (P02769 25-607 limits assumed): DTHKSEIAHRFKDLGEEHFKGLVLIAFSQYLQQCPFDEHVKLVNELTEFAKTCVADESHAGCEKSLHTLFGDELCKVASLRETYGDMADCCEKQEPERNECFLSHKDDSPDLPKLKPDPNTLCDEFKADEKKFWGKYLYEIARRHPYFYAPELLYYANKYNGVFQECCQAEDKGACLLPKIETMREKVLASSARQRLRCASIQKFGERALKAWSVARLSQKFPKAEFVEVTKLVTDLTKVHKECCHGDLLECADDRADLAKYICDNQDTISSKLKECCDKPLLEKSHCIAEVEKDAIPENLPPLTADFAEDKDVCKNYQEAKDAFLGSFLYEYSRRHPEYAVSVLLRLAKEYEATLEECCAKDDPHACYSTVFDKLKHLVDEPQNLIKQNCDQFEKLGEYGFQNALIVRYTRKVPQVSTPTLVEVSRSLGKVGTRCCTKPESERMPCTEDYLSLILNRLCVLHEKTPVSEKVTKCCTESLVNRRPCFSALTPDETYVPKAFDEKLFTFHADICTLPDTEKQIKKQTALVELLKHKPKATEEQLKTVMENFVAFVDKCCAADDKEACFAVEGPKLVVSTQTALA

Sequence of Histone H3-BSA 2.7x peptide-protein conjugate (bovine) (P02769 25-607 limits assumed): as above
Sequence of Erk1-BSA 2.7x peptide-protein conjugate (human; bovine) (peptide, as listed by the source limits assumed, chain 1 of 2): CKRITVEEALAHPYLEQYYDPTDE
Sequence of Erk1-BSA 2.7x peptide-protein conjugate (human; bovine) (P02769 25-607 limits assumed, chain 2 of 2): as the sequence (P02769 25-607 limits assumed) above
Sequence of UniProt P06400 (P06400 whole entry): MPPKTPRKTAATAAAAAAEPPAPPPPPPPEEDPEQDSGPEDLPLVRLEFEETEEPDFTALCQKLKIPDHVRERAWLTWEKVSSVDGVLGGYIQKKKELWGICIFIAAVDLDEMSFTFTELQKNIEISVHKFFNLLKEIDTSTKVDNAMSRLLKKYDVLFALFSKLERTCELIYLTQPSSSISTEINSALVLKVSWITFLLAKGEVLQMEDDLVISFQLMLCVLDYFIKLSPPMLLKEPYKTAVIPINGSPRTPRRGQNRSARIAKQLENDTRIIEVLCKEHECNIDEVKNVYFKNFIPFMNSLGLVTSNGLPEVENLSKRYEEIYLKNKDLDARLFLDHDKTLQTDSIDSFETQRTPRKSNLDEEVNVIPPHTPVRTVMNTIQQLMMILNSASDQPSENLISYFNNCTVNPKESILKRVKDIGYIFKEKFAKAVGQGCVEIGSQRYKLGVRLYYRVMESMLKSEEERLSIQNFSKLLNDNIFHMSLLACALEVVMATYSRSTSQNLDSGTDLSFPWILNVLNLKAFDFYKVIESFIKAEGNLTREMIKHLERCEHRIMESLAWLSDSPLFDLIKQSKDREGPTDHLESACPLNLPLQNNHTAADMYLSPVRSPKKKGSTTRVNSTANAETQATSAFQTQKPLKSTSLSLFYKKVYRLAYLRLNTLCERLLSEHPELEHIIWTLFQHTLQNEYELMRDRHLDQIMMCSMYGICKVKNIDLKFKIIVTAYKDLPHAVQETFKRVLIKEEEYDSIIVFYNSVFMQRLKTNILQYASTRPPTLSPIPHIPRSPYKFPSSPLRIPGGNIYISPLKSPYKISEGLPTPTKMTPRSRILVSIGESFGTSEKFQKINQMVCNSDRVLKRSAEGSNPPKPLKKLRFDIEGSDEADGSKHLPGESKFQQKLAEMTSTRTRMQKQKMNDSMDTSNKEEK

Histone H3 antibody, Abcam ab1791: the maximum standard curve signal in test [1] was 3.33 RFI; in test [2], 0.02 RFI; in test [3], below 0.01 RFI; in test [4] it was below 0.01 RFI; in test [5] it was below 0.01 RFI; in test [6], below 0.01 RFI. For the same substance, the maximum standard curve signal in test [7] stood at 0.01 RFI.
“p44/42 MAPK phospho (pERK1/2) Thr202/Tyr204 antibody, Cell Signaling Technology #9101” gave a maximum standard curve signal in test [8] of 3.47 RFI.
